The chains are these.
B1: UN2A, unique insertion sequence of the N2A region of titin (mouse, amino acids 8539-8655) (domain or fragment)
chain: DERKKQEKIEGDLRAMLKKTPALKKGSGEEEEIDIMELLKNVDPKEYEKYARMYGITDFRGLLQAFELLKQSQEEETHRLEIEELEKSERDEKEFEELVAFIQQRLTQTEPVTLIKD
notes: titin, mouse, UN2A region between Ig domains I80 and I81, amino acids 8539-8655; Gene synthesised by GeneArt; No tag is named; source: E. coli BL21(DE3) pLysS, purified (Capto-Q anion exchange, SEC)
B2: S100A1 (mouse) (natural protein)
chain: MGSELESAMETLINVFHAHSGQEGDKYKLSKKELKDLLQTELSGFLDVQKDADAVDKVMKELDENGDGEVDFKEYVVLVAALTVACNNFFWETS
notes: S100A1, mouse; No tag is named; source: E. coli BL21(DE3), purified (Capto-Q anion exchange, phenyl Sepharose)

Holding throughout (conditions): both partners purified
The target in the experiment “S100A1 (mouse)” is B2. Description: co-IP; purified proteins, 500 µg each, with anti-S100A1 antibody overnight at 4°C, captured on magnetic beads; 250 mM NaCl, 20 mM HEPES, 1 mM Ca^2+, pH 6; SDS-PAGE, silver staining, densitometry.
The target in experiment [1] is B1. As to the kind of experiment: SPR; UN2A immobilised on carboxyl sensor (OpenSPR), S100A1 injected at 5 to 100 µM; 25°C; 250 mM NaCl, 20 mM HEPES, 0.05% Tween; pCa 5, pH 7.4; 1:1 model. For orientation: Surface plasmon resonance follows binding to a sensor surface in real time, without labels.
Experiment [2] addresses B1. As to the kind of experiment: SPR; UN2A immobilised on carboxyl sensor (OpenSPR), S100A1 injected; 25°C; pCa 3, pH 6.5; 1:1 model.
In experiment [3] the target is B1. Description: SPR; UN2A immobilised on carboxyl sensor (OpenSPR), S100A1 injected at 5 to 100 µM; 25°C; 250 mM NaCl, 20 mM HEPES, 0.05% Tween; pCa 3, pH 6.0; 1:1 model.
In experiment [4] the target is B1. As to the kind of experiment: SPR; UN2A immobilised on carboxyl sensor (OpenSPR), S100A1 injected at 5 to 100 µM; 25°C; 250 mM NaCl, 20 mM HEPES, 0.05% Tween; pCa 3, pH 7.4; 1:1 model.
For experiment [5], the target named is B1. As to the kind of experiment: SPR; UN2A immobilised on carboxyl sensor (OpenSPR), S100A1 injected at 5 to 100 µM; 25°C; 250 mM NaCl, 20 mM HEPES, 0.05% Tween; pCa 5, pH 6.0; 1:1 model.

As to B1, in the experiment with S100A1 (mouse), the “band intensity of UN2A relative to the S100A1 band (densitometry)” value came out at 25% and the “binding ratio of UN2A to S100A1 in the complex (densitometry)” value is ~0.25 UN2A per S100A1.
In general, Kd refers to the equilibrium constant for the complex coming apart. A higher Kd goes with lower affinity. In the case of B2, the dissociation constant (Kd) worked out at 285 µM in experiment [1]; 9.95 µM in experiment [2]; 5 µM in experiment [3]; 21.6 µM in experiment [4]; 174 µM in experiment [5].

For the origin of these results see article PMC11687307, “The calcium-binding protein S100A1 binds to titin’s N2A insertion sequence in a pH-dependent manner” (The Journal of General Physiology, 2024).
